# Test results taken from patent publication US20210070875A1 (SHANGHAI PHARMAEXPLORER, published 2021).
# T1: human C5aR (human, UniProt P21730 1-350)
# T1 chain: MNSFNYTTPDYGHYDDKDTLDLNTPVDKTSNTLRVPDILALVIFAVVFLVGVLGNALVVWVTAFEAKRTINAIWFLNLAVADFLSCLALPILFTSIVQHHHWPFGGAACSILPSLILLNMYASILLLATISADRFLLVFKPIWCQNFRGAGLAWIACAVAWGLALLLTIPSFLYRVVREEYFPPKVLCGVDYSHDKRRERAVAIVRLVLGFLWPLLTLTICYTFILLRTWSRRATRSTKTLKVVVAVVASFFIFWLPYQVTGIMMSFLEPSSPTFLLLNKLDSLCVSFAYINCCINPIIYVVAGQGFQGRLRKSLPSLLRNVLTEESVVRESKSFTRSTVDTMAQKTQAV
# B1: 5F8E2C11 (antibody, V domains shown)
# VH: QVQLRQSGPGLVQPSQSLSITCTVSGFSLTSYGVHWVRQSPGKGLEWLGVIWSGGSTDYNAAFISRLSISKDYSKSQIFLTMNSLQTDDTAIYYCARNSRLGNCFDYWGQGTTLTVSS
# VL: DIVMSQSPSSLAVSAGEKVTMSCKSSQSLLNSRTRKNYLAWYQQKPGQSPKLLIYWASTRESGVPDRFTGSGSGTDFTLTISSVQAEDLAVYYCKQSYNLPAFGGGTKLEIK
# B2: 42B5G7D1 (antibody, V domains shown)
# VH: QVQLQQSGPELVKPGASVKISCKASGYVFSNSWMNWVKQRPGKGLEWIGRIDPGDGDTKYNGKFKGKATLTADKSSSTAYMQLSSLTSEDSAVYFCVRFYYGSNYVGYYFDYWGQGTTLTVSS
# VL: DVLMTQTPLSLPVSLGDQASISCRSSQSIVQSNGNTYLEWYLQKPGQSPKLLIYKVSNRFSGVPDRFSGSGSGTDFTLKISRVEAEDLGVYYCFQGSLVPPTFGGGTKLEIK
# B3: 43E8F5B6 (antibody, V domains shown)
# VH: EVQLQQSGPELVKPGASVKISCKASGYTFTDYYMSWMKQSHGKSLEWIGDINPNNGDNIYNQKFKGKATLTVDRSSSTAYMDLRSLTSEDSAVYYCARWYYYVSSFSYWYFDVWGTGTTVTVSS
# VL: EIVLTQSPTTMAASPGEKITITCSATSSINSNYLHWYQQKPGFSPKLLIYRTSNLASGVPARFSGSGSGTSYSLTIGTMEAEDVATYYCQQGRTIPRTFGSGTKLEIK
# B4: 46H2A11C7 (antibody, V domains shown)
# VH: QVQLKQSGAELVKPGASVKISCRASGYTFTDYFINWVKQRPGQGLEWIGKIGPGSGNIYQNEKFKDKATLTTDTSSSTAYMQLSSLTSEDSAVYFCARWGIQRGWGQGTTLTVSS
# VL: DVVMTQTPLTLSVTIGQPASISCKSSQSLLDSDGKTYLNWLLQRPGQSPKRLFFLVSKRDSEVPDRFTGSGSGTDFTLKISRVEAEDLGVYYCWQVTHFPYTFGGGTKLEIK
# B5: 2A12B2B2 (antibody, V domains shown)
# VH: QVQLQQPGADLVKPGASVKMSCKASGYILTTYWITWVKQRPGQGLEWIGDIHPGSGSTKYNEKFKSKATLTVDTSSSTAYMQLTRLSSEDSAVYYCARRDYWGQGTTLTVSS
# VL: DIQMTQTTSSLSASLGDKVTISCRASQDISNYLSWYQQKPDGTVKLLIYWISRLHSGVPSRFSGSGSGTDFSLTISNLEQEDIATYFCQQGNSLPPTFGGGTKLEVK
# B6: 8B5D1A9 (antibody, V domains shown)
# VH: QVQLKQSGAELVKPGASVKISCKTSGYIFTDYYINWMKQRPGQGLEWIGKIGPGSGTTFYNEKFKGKATLTADKSSTTLYMQLSSLTAEDSAVYFCTRRGYYSSSYFYWGQGTTLTVSS
# VL: DIVMTQSPSSLSVSAGEKVIMSCKSSQSLLNSERQKNYLAWYQQKPGQSPKLLIYGASTRESGVPDRFTGSGSGTDFTLTISSVQAEDLAVYYCLNDHSYPLTFGAGTKLELK
# B7: 9D5A12G7 (antibody, V domains shown)
# VH: QVQLKQSGPGLVQPSQSLSITCTVSGFSLTSYGVHWVRQSPGKGLEWLGVIWSGGSTDYNAAFISRLSISKDNSKSQVFFKMNSLQADDTAIYYCARNGLLGNAMDYWGQGTSVTVSS
# VL: DIVMSQSPSSLAVSAGEKVTMSCKSSQSLLSSRTRKNYLAWYQQKPGQSPKLLIYWASTRESGVPDRFTGSGSGTDFTLTISSVQTEDLAVYYCKQSYNLLTFGAGTTLELK
# Biological target: T1, human C5aR
# Experiment: cell-based or functional assay
# Also: test concentration or dose not given here.
Binder,"C5a-induced human neutrophil migration, Celltiter-Glo fluorescence intensity value, Parallel sample 1","C5a-induced human neutrophil migration, Celltiter-Glo fluorescence intensity value, Parallel sample 2","C5a-induced human neutrophil migration, Celltiter-Glo fluorescence intensity value, Parallel sample 3","C5a-induced human neutrophil migration, Celltiter-Glo fluorescence intensity value, Parallel sample 4"
B1,575 fluorescence intensity,429 fluorescence intensity,400 fluorescence intensity,313 fluorescence intensity
B2,1200 fluorescence intensity,1480 fluorescence intensity,298 fluorescence intensity,335 fluorescence intensity
B3,844 fluorescence intensity,808 fluorescence intensity,706 fluorescence intensity,757 fluorescence intensity
B4,1460 fluorescence intensity,1510 fluorescence intensity,1930 fluorescence intensity,2040 fluorescence intensity
B5,670 fluorescence intensity,597 fluorescence intensity,233 fluorescence intensity,204 fluorescence intensity
B6,655 fluorescence intensity,713 fluorescence intensity,706 fluorescence intensity,750 fluorescence intensity
B7,175 fluorescence intensity,211 fluorescence intensity,575 fluorescence intensity,611 fluorescence intensity
